Consider six molecules from PMC8837689, “Allosteric control of Ubp6 and the proteasome via a bidirectional switch” (Nature Communications, 2022).

Numbering of substitutions follows the chain as printed. Numbers in names are those of the source.

The target in test [1] is 26S proteasome purified from ubp6Δ hul5Δ yeast (nominally wild-type), Protein A-tagged (budding yeast) (UniProt P33299).
For test [2] the target is unchanged. Description: Ub-AMC hydrolysis (activation of Ubp6 as a proxy for the association); Ubp6 1.25 nM to 60 nM titrated on 1 nM proteasome with 1 μM Ub-AMC; rates of Ubp6 alone and proteasome alone subtracted; hyperbolic fit; 50 mM Tris-HCl pH 7.5, 1 mM EDTA, 1 mM ATP, 5 mM MgCl2, 1 mM DTT, 1 mg/mL ovalbumin.
In test [3] the target is 26S proteasome purified from rpt1-RK ubp6Δ hul5Δ yeast, Protein A-tagged (budding yeast) (UniProt P33299). Described as above.
The target is the same in test [4].
In test [5] the target is T1, Rpt6 (proteasome subunit) (budding yeast, UniProt Q01939 1-405).
T1 construct: Rpt6, ATPase of the regulatory particle, budding yeast; Stood in the assay as a subunit of m6; source: subunit of the 26S proteasome (3X FLAG) purified from yeast
T1 sequence: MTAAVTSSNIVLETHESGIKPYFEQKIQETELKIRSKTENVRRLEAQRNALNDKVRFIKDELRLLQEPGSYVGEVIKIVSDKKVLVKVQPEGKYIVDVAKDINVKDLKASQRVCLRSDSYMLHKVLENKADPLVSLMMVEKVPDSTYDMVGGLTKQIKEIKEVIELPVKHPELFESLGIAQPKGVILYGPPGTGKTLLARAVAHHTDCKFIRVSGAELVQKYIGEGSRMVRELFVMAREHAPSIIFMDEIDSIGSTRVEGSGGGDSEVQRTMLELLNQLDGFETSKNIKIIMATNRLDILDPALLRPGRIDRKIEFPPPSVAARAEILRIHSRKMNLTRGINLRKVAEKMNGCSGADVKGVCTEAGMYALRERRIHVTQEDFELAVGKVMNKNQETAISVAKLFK
As to the kind of experiment: cryo-EM structure; 26S proteasomes and Ubp6-UbVS mixed 1:4 (400 nM 26S or 26S Rpt1-RK, 1.6 μM Ubp6-UbVS), 20 min on ice; 20 mM HEPES-NaOH pH 7.4, 40 mM NaCl, 4 mM DTT, 4 mM MgCl2, 4 mM ATP, ~25% sucrose; maps at 6 to 7 Å, models by flexible fitting. The settings on record: both partners purified.

Test [6] addresses T2, Ubp6 (wild-type, His6-tagged) (budding yeast, UniProt P43593 1-499).
T2 construct: Ubp6, deubiquitinating enzyme, budding yeast; N-terminal UBL domain and C-terminal catalytic domain (residues 104 to 499); In the cryo-EM rows Ubp6 stood as the UbVS adduct; only the catalytic domain (104-499) was modelled; also called His6-Ubp6; wild-type Ubp6; source: E. coli Rosetta (DE3), purified (Ni-NTA)
T2 sequence (looked up): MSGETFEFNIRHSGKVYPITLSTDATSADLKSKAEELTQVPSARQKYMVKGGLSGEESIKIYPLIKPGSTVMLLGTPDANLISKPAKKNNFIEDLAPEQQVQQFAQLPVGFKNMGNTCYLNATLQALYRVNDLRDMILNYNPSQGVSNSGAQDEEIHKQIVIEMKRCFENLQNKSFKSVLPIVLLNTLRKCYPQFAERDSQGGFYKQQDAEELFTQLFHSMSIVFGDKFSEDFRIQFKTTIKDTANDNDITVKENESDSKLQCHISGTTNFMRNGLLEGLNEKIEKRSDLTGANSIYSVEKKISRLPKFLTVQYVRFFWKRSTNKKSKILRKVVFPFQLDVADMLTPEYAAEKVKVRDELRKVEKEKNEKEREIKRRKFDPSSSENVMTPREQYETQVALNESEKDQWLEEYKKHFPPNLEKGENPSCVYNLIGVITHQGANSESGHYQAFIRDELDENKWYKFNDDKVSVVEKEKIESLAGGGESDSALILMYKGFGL
The test is described as above. The settings on record: both partners purified.

Turning to “Ubp6-I329A L330A (from UniProt P43593 97-499) (enzyme)”, the proteasome-activated deubiquitinating activity (Ub-AMC hydrolysis) of Ubp6-AA relative to wild-type Ubp6 in test [1] is 2 % of WT. Further, the Kd in test [2] is 4 nM.

For the molecule “Ubp6 (wild-type, His6-tagged) (from UniProt P43593 1-499) (enzyme)”, the Kd is 3.3 nM in test [2] and 2 nM in test [3]. Besides, the capacity of the Rpt1-RK proteasome to activate wild-type Ubp6 (Ub-AMC hydrolysis), loss relative to wild-type proteasome in test [4] amounted to 97 % lost.

B1: α3 subunit of the CP α ring (natural protein, budding yeast)
chain: MGSRRYDSRTTIFSPEGRLYQVEYALESISHAGTAIGIMASDGIVLAAERKVTSTLLEQDTSTEKLYKLNDKIAVAVAGLTADAEILINTARIHAQNYLKTYNEDIPVEILVRRLSDIKQGYTQHGGLRPFGVSFIYAGYDDRYGYQLYTSNPSGNYTGWKAISVGANTSAAQTLLQMDYKDDMKVDDAIELALKTLSKTTDSSALTYDRLEFATIRKGANDGEVYQKIFKPQEIKDILVKTGITKKDEDEEADEDMK
notes: alpha3 subunit of the core particle alpha ring, budding yeast; Stood in the assay as a subunit of m6; source: subunit of the 26S proteasome (3X FLAG) purified from yeast
Turning to B1, the binding result in test [5] is “binds”.

B2: Rpt1 (proteasome subunit) (natural protein, budding yeast)
chain: MPPKEDWEKYKAPLEDDDKKPDDDKIVPLTEGDIQVLKSYGAAPYAAKLKQTENDLKDIEARIKEKAGVKESDTGLAPSHLWDIMGDRQRLGEEHPLQVARCTKIIKGNGESDETTTDNNNSGNSNSNSNQQSTDADEDDEDAKYVINLKQIAKFVVGLGERVSPTDIEEGMRVGVDRSKYNIELPLPPRIDPSVTMMTVEEKPDVTYSDVGGCKDQIEKLREVVELPLLSPERFATLGIDPPKGILLYGPPGTGKTLCARAVANRTDATFIRVIGSELVQKYVGEGARMVRELFEMARTKKACIIFFDEIDAVGGARFDDGAGGDNEVQRTMLELITQLDGFDPRGNIKVMFATNRPNTLDPALLRPGRIDRKVEFSLPDLEGRANIFRIHSKSMSVERGIRWELISRLCPNSTGAELRSVCTEAGMFAIRARRKVATEKDFLKAVDKVISGYKKFSSTSRYMQYN
notes: Rpt1, ATPase of the regulatory particle, budding yeast; Stood in the assays as a subunit of m6 or m10; source: subunit of the 26S proteasome (3X FLAG) or RP (Protein A) purified from yeast
Regarding B2, the binding result in test [6] is on record as “binds”.

B3: Rpt1-S164R T166K (natural protein, budding yeast)
chain: B2 chain with S164R, T166K
notes: Rpt1, ATPase of the regulatory particle, budding yeast, with S164R and T166K; Stood in the assay as a subunit of m7; also called Rpt1-RK; rpt1-RK; source: subunit of the Rpt1-RK 26S proteasome (3X FLAG) purified from yeast
As to B3, the binding result in test [6] is “binds”.

B4: α2 subunit of the CP α ring (natural protein, budding yeast)
chain: MTDRYSFSLTTFSPSGKLGQIDYALTAVKQGVTSLGIKATNGVVIATEKKSSSPLAMSETLSKVSLLTPDIGAVYSGMGPDYRVLVDKSRKVAHTSYKRIYGEYPPTKLLVSEVAKIMQEATQSGGVRPFGVSLLIAGHDEFNGFSLYQVDPSGSYFPWKATAIGKGSVAAKTFLEKRWNDELELEDAIHIALLTLKESVEGEFNGDTIELAIIGDENPDLLGYTGIPTDKGPRFRKLTSQEINDRLEAL
notes: alpha2 subunit of the core particle alpha ring, budding yeast; Stood in the assay as a subunit of m6; source: subunit of the 26S proteasome (3X FLAG) purified from yeast
In the case of B4, in test [5], the binding result is recorded as “binds”.
